The record followed here is the supplement of paper PMC10567573.

B1: HMOX1 (parent)
chain: YHIYVALEEEIERNKESPVFAPVY
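Also: lentivirally expressed fusions sorted by FACS into six bins by GFP to DsRed ratio, PSI derived from sequencing read proportions per bin multiplied by bin number.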

The variants in this data set derive from B1. Briefly: protein stability index of a GFP-peptide fusion (GPS, HEK-293T) (PSI 1-6); higher = more stable. Particulars: c terminus: a fixed tail appended.
For the variant YHIYVALEEEIERNKEQPVFAPVY [S17Q], the protein stability index is 1.57. As for YHIYVALEEEIERNKEHPVFAPVY [S17H], the protein stability index is 1.83. With YHIYVALEEEIERNKECPVFAPVY [S17C], the protein stability index came to 1.86. On to YHIYVALEEEIERNKEKPVFAPVY [S17K], for which the protein stability index came out at 2.14. YHIYVALEEEIERNKERPVFAPVY [S17R]: the protein stability index came to 2.2. Next, YHIYVALEEEIERNKETPVFAPVY [S17T]: 1.69. In the case of YHIYVALEEEIERNKEVPVFAPVY [S17V], the protein stability index is 1.65.

With YHIYVALEEEIERNKENPVFAPVY [S17N], the protein stability index was found to be 2.05. Regarding YHIYVALEEEIERNKEAPVFAPVY [S17A], the protein stability index came to 2.27.

As to YHIYVALEEEIERNKEPPVFAPVY [S17P], the protein stability index is 2.02. As to YHIYVALEEGIERNKESPVFAPVY [E10G], the protein stability index was found to be 1.54.

In the case of YHIYVALEEAIERNKESPVFAPVY [E10A], the protein stability index was 2.59. As for YHIYVALEELIERNKESPVFAPVY [E10L], the protein stability index is 2.27. On to YHIYVALEEFIERNKESPVFAPVY [E10F], for which the protein stability index came to 1.78. In the case of YHIYVALEEYIERNKESPVFAPVY [E10Y], the protein stability index was 2.

For YHIYVALEERIERNKESPVFAPVY [E10R], the protein stability index is 1.56.

As for YHIYVALEEKIERNKESPVFAPVY [E10K], the protein stability index was 1.99. Take YHIYVALEEDIERNKESPVFAPVY [E10D]: the protein stability index came to 2.93. Regarding YHIYVALEEEIELNKESPVFAPVY [R13L], the protein stability index was 1.22. Next, YHIYVALEEEIEDNKESPVFAPVY [R13D]: 1.52. In the case of YHIYVALEEEIEFNKESPVFAPVY [R13F], the protein stability index turned out to be 2.97. In the case of YHIYVALEEEIEQNKESPVFAPVY [R13Q], the protein stability index stood at 1.54. Take YHIYVALEEEIESNKESPVFAPVY [R13S]: the protein stability index turned out to be 2.23. Consider YHIYVALEEEIEPNKESPVFAPVY [R13P], for which the protein stability index turned out to be 2.11. As for YHIYVALELEIERNKESPVFAPVY [E9L], the protein stability index was determined as 2.57.

As to YHIYVALETEIERNKESPVFAPVY [E9T], the protein stability index amounted to 1.7. To YHIYVALESEIERNKESPVFAPVY [E9S] belongs 1.87.

In the case of YHIYVALEPEIERNKESPVFAPVY [E9P], the protein stability index was found to be 2.6.

For the variant YHIYVALEDEIERNKESPVFAPVY [E9D], the protein stability index came to 1.88. On to YHIYVALEEEIERLKESPVFAPVY [N14L], for which the protein stability index was found to be 2.05. With YHIYVALEEEIERCKESPVFAPVY [N14C], the protein stability index was 1.32.

YHIYVALEEEIERIKESPVFAPVY [N14I]: the protein stability index worked out at 1.26. YHIYVALEEEIERGKESPVFAPVY [N14G]: the protein stability index was 1.98. Turning to YHIYVALEEEIERKKESPVFAPVY [N14K], the protein stability index was found to be 2.12.

Regarding YHIYVALEEEIEREKESPVFAPVY [N14E], the protein stability index came to 1.98.

Regarding YHIYVALEEEIERDKESPVFAPVY [N14D], the protein stability index stood at 2.06. Regarding YHIYVALEEEIERTKESPVFAPVY [N14T], the protein stability index came out at 2.81. In the case of YHIYVALEEEIERYKESPVFAPVY [N14Y], the protein stability index worked out at 1.45.

Take YHIYVALEEEIERQKESPVFAPVY [N14Q]: the protein stability index came to 2.62. In the case of YHIYVALEEEIERNWESPVFAPVY [K15W], the protein stability index was 2.21.

As to YHIYVALEEEIERNTESPVFAPVY [K15T], the protein stability index stood at 1.36. For YHIYVALEEEIERNAESPVFAPVY [K15A], the protein stability index came out at 2.92. Turning to YHIYVALEEEIERNFESPVFAPVY [K15F], the protein stability index was determined as 2.13. As to YHIYVALEEEIERNIESPVFAPVY [K15I], the protein stability index was found to be 1.87. To YHIYVALEEEIERNGESPVFAPVY [K15G] belongs 1.9; to YHIYVALEEEIERNPESPVFAPVY [K15P], 1.53. With YHIYVALEEEIERNNESPVFAPVY [K15N], the protein stability index came to 1.7. For YHIYVALEEEIERNRESPVFAPVY [K15R], the protein stability index stood at 1.38. To YHIYVALEEEIERNLESPVFAPVY [K15L] belongs 2.22; to YHIYVALEEEIERNKESPVFRPVY [A21R], 2.2; to YHIYVALEEEIERNKESPVFGPVY [A21G], 2.43. YHIYVALEEEIERNKESPVFFPVY [A21F]: the protein stability index was 2.21. Take YHIYVALEEEIERNKESPVFVPVY [A21V]: the protein stability index amounted to 1.76. YHIYVALEEEIERNKESPVFHPVY [A21H]: the protein stability index amounted to 2.06. In the case of YHIYVALEEEIERNKESPVFPPVY [A21P], the protein stability index came out at 2.06. For the variant YHIYVALEEEIERNKESPVFNPVY [A21N], the protein stability index came to 2.31. With YHIYVALEEEIERNKESPVFSPVY [A21S], the protein stability index was 2.02. To YHIYVALEEEIERNKESPVFYPVY [A21Y] belongs 1.49. Regarding YHIYVALEEEIERNKESPVFCPVY [A21C], the protein stability index came out at 1.72. As to YHIYVALEEEIHRNKESPVFAPVY [E12H], the protein stability index turned out to be 1.58. As to YHIYVALEEEIARNKESPVFAPVY [E12A], the protein stability index amounted to 1.68. YHIYVALEEEIFRNKESPVFAPVY [E12F]: the protein stability index is 2.35. YHIYVALEEEIDRNKESPVFAPVY [E12D]: the protein stability index amounted to 1.43. Consider YHIYVALEEEIPRNKESPVFAPVY [E12P], for which the protein stability index was 3.7.

As to YHIYVALEEEMERNKESPVFAPVY [I11M], the protein stability index came out at 2.16. For the variant YHIYVALEEECERNKESPVFAPVY [I11C], the protein stability index amounted to 2.46. To YHIYVALEEEKERNKESPVFAPVY [I11K] belongs 2.05; to YHIYVALEEEPERNKESPVFAPVY [I11P], 2.07.

For the variant YHIYVALEEEGERNKESPVFAPVY [I11G], the protein stability index came to 2.24.

Take YHIYVALEEEAERNKESPVFAPVY [I11A]: the protein stability index amounted to 1.31. Turning to YHIYVALEEEYERNKESPVFAPVY [I11Y], the protein stability index came out at 2.21. As to YHIEVALEEEIERNKESPVFAPVY [Y4E], the protein stability index worked out at 2.09. Regarding YHIPVALEEEIERNKESPVFAPVY [Y4P], the protein stability index came out at 1.78.

Turning to YHIIVALEEEIERNKESPVFAPVY [Y4I], the protein stability index was 1.49. Turning to YHIDVALEEEIERNKESPVFAPVY [Y4D], the protein stability index is 2.29. Consider YHILVALEEEIERNKESPVFAPVY [Y4L], for which the protein stability index was 2.26. Regarding YHIKVALEEEIERNKESPVFAPVY [Y4K], the protein stability index worked out at 2.41. To YHIHVALEEEIERNKESPVFAPVY [Y4H] belongs 2.01. Next, YHIRVALEEEIERNKESPVFAPVY [Y4R]: 1.57; YHIYVALEEEIERNKESPEFAPVY [V19E]: 2.93.

As to YHIYVALEEEIERNKESPKFAPVY [V19K], the protein stability index was 1.99.

For the variant YHIYVALEEEIERNKESPRFAPVY [V19R], the protein stability index is 3.44. As to YHIYVALEEEIERNKESPMFAPVY [V19M], the protein stability index amounted to 2.24.

Take YHIYVALEEEIERNKESPFFAPVY [V19F]: the protein stability index is 1.84.

YHIYVALEEEIERNKESPYFAPVY [V19Y]: the protein stability index turned out to be 1.46.

As for YHIYVALEEEIERNKESPCFAPVY [V19C], the protein stability index was 1.81. Next, YHIYVALEEEIERNKESPGFAPVY [V19G]: 2.37; YHIYVALEEEIERNKESPNFAPVY [V19N]: 2.69. On to YHIYVALEEEIERNKESPQFAPVY [V19Q], for which the protein stability index came to 2.14. Consider YGIYVALEEEIERNKESPVFAPVY [H2G], for which the protein stability index came to 2.57. On to YSIYVALEEEIERNKESPVFAPVY [H2S], for which the protein stability index was found to be 2.46.

YWIYVALEEEIERNKESPVFAPVY [H2W]: the protein stability index was determined as 1.38. With YNIYVALEEEIERNKESPVFAPVY [H2N], the protein stability index came to 2.7. As for YLIYVALEEEIERNKESPVFAPVY [H2L], the protein stability index was 2.17.
